The target of the assay is T1, Wild Type Ub (human, UniProt P0CG48 1-76).
T1 construct: native (tag-free) WT ubiquitin was the analyte in BLI; also called wt Ub; WT ubiquitin
Description: ELISA on immobilized HECT domain. On the procedure: Proteins in study were immobilized on 384-well MaxiSorp plates (Thermo Scientific 12665347) by adding 30 μL of 1 μM proteins for overnight incubation at 4° C. Phage and protein ELISA against immobilized proteins was performed as described (Ernst et al., 2013). Binding of phage was detected using anti-M13-HRP antibody (GE Healthcare 27942101) and binding of FLAG-tagged UbVs was detected using anti-FLAG-HRP antibody (Sigma-Aldrich A8592). […] EC₅₀ values were calculated using the GraphPad Prism software with the built-in equation formula (non-linear regression curve).

The values below come from patent US20200277346A1 (GOVERNING COUNCIL OF THE UNIVERSITY OF TORONTO, published 2020).

B1: UBE3C HECT domain (enzyme, human, UniProt Q15386 693-1083, looked up)
chain: VPFEERVKIFQRLIYADKQEVQGDGPFLDGINVTIRRNYIYEDAYDKLSPENEPDLKKRIRVHLLNAHGLDEAGIDGGGIFREFLNELLKSGFNPNQGFFKTTNEGLLYPNPAAQMLVGDSFARHYYFLGRMLGKALYENMLVELPFAGFFLSKLLGTSADVDIHHLASLDPEVYKNLLFLKSYEDDVEELGLNFTVVNNDLGEAQVVELKFGGKDIPVTSANRIAYIHLVADYRLNRQIRQHCLAFRQGLANVVSLEWLRMFDQQEIQVLISGAQVPISLEDLKSFTNYSGGYSADHPVIKVFWRVVEGFTDEEKRKLLKFVTSCSRPPLLGFKELYPAFCIHNGGSDLERLPTASTCMNLLKLPEFYDETLLRSKLLYAIECAAGFELS
notes: domain: HECT domain; His- and Avi-tagged for selection and ELISA
In the case of B1, the binding result is “no binding”.

B2: HERC6 HECT domain (enzyme, human, UniProt Q8IVU3 650-1022, looked up)
chain: KAYMLMHETILQKKDEFPPSPRFILRVRRSRLVKDALRQLSQAEATDFCKVLVVEFINEICPESGGVSSEFFHCMFEEMTKPEYGMFMYPEMGSCMWFPAKPKPEKKRYFLFGMLCGLSLFNLNVANLPFPLALYKKLLDQKPSLEDLKELSPRLGKSLQEVLDDAADDIGDALCIRFSIHWDQNDVDLIPNGISIPVDQTNKRDYVSKYIDYIFNVSVKAVYEEFQRGFYRVCEKEILRHFYPEELMTAIIGNTDYDWKQFEQNSKYEQGYQKSHPTIQLFWKAFHKLTLDEKKKFLFFLTGRDRLHARGIQKMEIVFRCPETFSERDHPTSITCHNILSLPKYSTMERMEEALQVAINNNRGFVSPMLTQS
notes: domain: HECT domain; His- and Avi-tagged for selection and ELISA; also called H6
With B2, the binding result is “no binding”.

B3: HUWE1 HECT domain (enzyme, human, UniProt Q7Z6Z7 3993-4374, looked up)
chain: DFDVKRKYFRQELERLDEGLRKEDMAVHVRRDHVFEDSYRELHRKSPEEMKNRLYIVFEGEEGQDAGGLLREWYMIISREMFNPMYALFRTSPGDRVTYTINPSSHCNPNHLSYFKFVGRIVAKAVYDNRLLECYFTRSFYKHILGKSVRYTDMESEDYHFYQGLVYLLENDVSTLGYDLTFSTEVQEFGVCEVRDLKPNGANILVTEENKKEYVHLVCQMRMTGAIRKQLAAFLEGFYEIIPKRLISIFTEQELELLISGLPTIDIDDLKSNTEYHKYQSNSIQIQWFWRALRSFDQADRAKFLQFVTGTSKVPLQGFAALEGMNGIQKFQIHRDDRSTDRLPSAHTCFNQLDLPAYESFEKLRHMLLLAIQECSEGFGLA
notes: as for B1
Regarding B3, the binding result is on record as “no binding”.

B4: HERC4 HECT domain (enzyme, human, UniProt Q5GLZ8 685-1057, looked up)
chain: AIDQAHRQNVSSLFLPVIESVNPCLILVVRRENIVGDAMEVLRKTKNIDYKKPLKVIFVGEDAVDAGGVRKEFFLLIMRELLDPKYGMFRYYEDSRLIWFSDKTFEDSDLFHLIGVICGLAIYNCTIVDLHFPLALYKKLLKKKPSLDDLKELMPDVGRSMQQLLDYPEDDIEETFCLNFTITVENFGATEVKELVLNGADTAVNKQNRQEFVDAYVDYIFNKSVASLFDAFHAGFHKVCGGKVLLLFQPNELQAMVIGNTNYDWKELEKNTEYKGEYWAEHPTIKIFWEVFHELPLEKKKQFLLFLTGSDRIPILGMKSLKLVIQSTGGGEEYLPVSHTCFNLLDLPKYTEKETLRSKLIQAIDHNEGFSLI
notes: domain: HECT domain; His- and Avi-tagged for selection and ELISA; also called H4
As to B4, the binding result is “no binding”.

B5: EDD1 HECT domain (enzyme, human, UniProt O95071 2462-2799, looked up)
chain: LDLGLVDSSEKVQQENRKRHGSSRSVVDMDLDDTDDGDDNAPLFYQPGKRGFYTPRPGKNTEARLNCFRNIGRILGLCLLQNELCPITLNRHVIKVLLGRKVNWHDFAFFDPVMYESLRQLILASQSSDADAVFSAMDLAFAIDLCKEEGGGQVELIPNGVNIPVTPQNVYEYVRKYAEHRMLVVAEQPLHAMRKGLLDVLPKNSLEDLTAEDFRLLVNGCGEVNVQMLISFTSFNDESGENAEKLLQFKRWFWSIVEKMSMTERQDLVYFWTSSPSLPASEEGFQPMPSITIRPPDDQHLPTANTCISRLYVPLYSSKQILKQKLLLAIKTKNFGFV
notes: as for B1
As to B5, the binding result is “no binding”.

B6: HECW2 HECT domain (enzyme)
chain: not shown
notes: as for B1
With B6, the binding result was “no binding”.

B7: HECW1 HECT domain (enzyme)
chain: not shown
notes: as for B1
As to B7, the binding result is “no binding”.

B8: HECTD1 HECT domain (enzyme, human, UniProt Q9ULT8 2151-2610, looked up)
chain: IHADRKSVLEVEFLGEEGTGLGPTLEFYALVAAEFQRTDLGAWLCDDNFPDDESRHVDLGGGLKPPGYYVQRSCGLFTAPFPQDSDELERITKLFHFLGIFLAKCIQDNRLVDLPISKPFFKLMCMGDIKSNMSKLIYESRGDRDLHCTESQSEASTEEGHDSLSVGSFEEDSKSEFILDPPKPKPPAWFNGILTWEDFELVNPHRARFLKEIKDLAIKRRQILSNKGLSEDEKNTKLQELVLKNPSGSGPPLSIEDLGLNFQFCPSSRIYGFTAVDLKPSGEDEMITMDNAEEYVDLMFDFCMHTGIQKQMEAFRDGFNKVFPMEKLSSFSHEEVQMILCGNQSPSWAAEDIINYTEPKLGYTRDSPGFLRFVRVLCGMSSDERKAFLQFTTGCSTLPPGGLANLHPRLTVVRKVDATDASYPSVNTCVHYLKLPEYSSEEIMRERLLAATMEKGFHLN
notes: as for B1
Take B8: the binding result is listed as “no binding”.

B9: HERC1 HECT domain (enzyme, human, UniProt Q15751 4460-4861, looked up)
chain: IGKTMVQGKNYGPQITVKRISTRGRKCKPIFVQIARQVVKLNASDLRLPSRAWKVKLVGEGADDAGGVFDDTITEMCQELETGIVDLLIPSPNATAEVGYNRDRFLFNPSACLDEHLMQFKFLGILMGVAIRTKKPLDLHLAPLVWKQLCCVPLTLEDLEEVDLLYVQTLNSILHIEDSGITEESFHEMIPLDSFVGQSADGKMVPIIPGGNSIPLTFSNRKEYVERAIEYRLHEMDRQVAAVREGMSWIVPVPLLSLLTAKQLEQMVCGMPEISVEVLKKVVRYREVDEQHQLVQWFWHTLEEFSNEERVLFMRFVSGRSRLPANTADISQRFQIMKVDRPYDSLPTSQTCFFQLRLPPYSSQLVMAERLRYAINNCRSIDMDNYMLSRNVDNAEGSDTDY
notes: domain: HECT domain; His- and Avi-tagged for selection and ELISA; also called H1
For the molecule B9, the binding result is “no binding”.

B10: KIAA0317 HECT domain (enzyme, human, UniProt O15033 436-823, looked up)
chain: SETFQDKVNFFQRELRQVHMKRPHSKVTLKVSRHALLESSLKATRNFSISDWSKNFEVVFQDEEALDWGGPRREWFELICKALFDTTNQLFTRFSDNNQALVHPNPNRPAHLRLKMYEFAGRLVGKCLYESSLGGAYKQLVRARFTRSFLAQIIGLRMHYKYFETDDPEFYKSKVCFILNNDMSEMELVFAEEKYNKSGQLDKVVELMTGGAQTPVTNANKIFYLNLLAQYRLASQVKEEVEHFLKGLNELVPENLLAIFDENELELLMCGTGDISVSDFKAHAVVVGGSWHFREKVMRWFWTVVSSLTQEELARLLQFTTGSSQLPPGGFAALCPSFQIIAAPTHSTLPTAHTCFNQLCLPTYDSYEEVHRMLQLAISEGCEGFGML
notes: as for B1
In the case of B10, the binding result is “no binding”.

B11: HACE1 HECT domain (enzyme, human, UniProt Q8IYU2 529-909, looked up)
chain: EWFYEHLHSGQPDSDMVHRPVNENDILLVHRDSIFRSSCEVVSKANCAKLKQGIAVRFHGEEGMGQGVVREWFDILSNEIVNPDYALFTQSADGTTFQPNSNSYVNPDHLNYFRFAGQILGLALNHRQLVNIYFTRSFYKHILGIPVNYQDVASIDPEYAKNLQWILDNDISDLGLELTFSVETDVFGAMEEVPLKPGGGSILVTQNNKAEYVQLVTELRMTRAIQPQINAFLQGFHMFIPPSLIQLFDEYELELLLSGMPEIDVSDWIKNTEYTSGYEREDPVIQWFWEVVEDITQEERVLLLQFVTGSSRVPHGGFANIMGGSGLQNFTIAAVPYTPNLLPTSSTCINMLKLPEYPSKEILKDRLLVALHCGSYGYTMA
notes: as for B1
In the case of B11, the binding result is reported as “no binding”.

B12: SMURF1 HECT domain (enzyme, human, UniProt Q9HCE7 374-757, looked up)
chain: YERDLVQKLKVLRHELSLQQPQAGHCRIEVSREEIFEESYRQIMKMRPKDLKKRLMVKFRGEEGLDYGGVAREWLYLLCHEMLNPYYGLFQYSTDNIYMLQINPDSSINPDHLSYFHFVGRIMGLAVFHGHYINGGFTVPFYKQLLGKPIQLSDLESVDPELHKSLVWILENDITPVLDHTFCVEHNAFGRILQHELKPNGRNVPVTEENKKEYVRLYVNWRFMRGIEAQFLALQKGFNELIPQHLLKPFDQKELELIIGGLDKIDLNDWKSNTRLKHCVADSNIVRWFWQAVETFDEERRARLLQFVTGSTRVPLQGFKALQGSTGAAGPRLFTIHLIDANTDNLPKAHTCFNRIDIPPYESYEKLYEKLLTAVEETCGFAVE
notes: domain: HECT domain; His- and Avi-tagged for selection and ELISA; also called S1
Take B12: the binding result was “no binding”.

B13: HERC2 HECT domain (enzyme, human, UniProt O95714 4412-4834, looked up)
chain: RQHGPVVELNRIQVKRSRSKGGLAGPDGTKSVFGQMCAKMSSFGPDSLLLPHRVWKVKFVGESVDDCGGGYSESIAEICEELQNGLTPLLIVTPNGRDESGANRDCYLLSPAARAPVHSSMFRFLGVLLGIAIRTGSPLSLNLAEPVWKQLAGMSLTIADLSEVDKDFIPGLMYIRDNEATSEEFEAMSLPFTVPSASGQDIQLSSKHTHITLDNRAEYVRLAINYRLHEFDEQVAAVREGMARVVPVPLLSLFTGYELETMVCGSPDIPLHLLKSVATYKGIEPSASLIQWFWEVMESFSNTERSLFLRFVWGRTRLPRTIADFRGRDFVIQVLDKYNPPDHFLPESYTCFFLLKLPRYSCKQVLEEKLKYAIHFCKSIDTDDYARIALTGEPAADDSSDDSDNEDVDSFASDSTQDYLTGH
notes: domain: HECT domain; His- and Avi-tagged for selection and ELISA; also called H2
Take B13: the binding result is listed as “no binding”.
